Measured values as given in the nanobody polyreactivity screen of Harvey et al. (2022).

Experiment: yeast display, Sf9 membrane polyspecificity reagent, FACS + sequencing; frameworks hold sequencing errors
Method in brief: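 Sorting gates, low and high (top ~1%), were placed on anti-HA fluorescence to track expression and on streptavidin fluorescence to track reagent binding. A clone's polyreactivity label is taken from the gate it came out of. The reagent was 10% biotinylated, detergent-solubilized Sf9 membrane, applied for 1 hour at 4 °C to galactose-induced yeast display cells.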

Sequence	polyreactivity (PSR sort gate)
QVQLVESGGGLVQAGGSLRLSCAASGRIFYYYDMGWYRQAPGKERELVAAINYSGGSTYYADSVKGRFTISRDNAKNTVYLQMNSLKPEDTAVYYCAADGYYYYSYGTTDQDDYWGQGTQVTVSS	low polyreactivity
QVQLVESGGGLVQAGGSLRLSCAASGSTFRGNTMGWYRQAPGKERELVAVISWSDGHTYYADSVKGRFSSSRDYAKNTGYLQMNSLKPEDPAVYYCAAPDPFYDLDSWGQGTQVTVSS	high polyreactivity
QVQLVESGGGLVQAGGSLRLSCAASGFIFPGNAMGWYRQAPGKEREFVAVISGSGGSTYYADSVKGRFTISRDNAKNTVYLQMNSLKPEDTAVYYCAAVYRDKSQRADYDYWGQGTQVTVSS	high polyreactivity
QVQLVESGGGLVQEGGSLSLICAASGRIYTPYAMGSYRQAPGKERELVAVIRDGSTYYADSVKGRFTISRDNAKNTVYLQMNSLKPADTAVYDCRYDIWVWWSGAYDYWGQCTQVTVSS	low polyreactivity
QVQLVESGGGLVQAGGSLRLSCAASGSIFGTNAMGWYRPAPGKERELVAAINWSGGTTYYADSVKGRFTISRDIAKNTVYLQMNSLKPEDTAVFYCNVGYPSIYDYWGQGTQVTVSS	low polyreactivity
QVQLVESGGGLVQAGGSLRLSCAASGSTIPLYAMGWYRQAPGKERELVAAISRSGGRTYYADSVKGRFTISRDNAKNTVYLQMNSLKPEDTAVYYCDSAQGSRVDYWGQGTQVTVSS	high polyreactivity
QVQLVESGGGLVQAGGSLRLSCAASGRTFWYYAMGWYRQAPGKERELVATISYRGGSTYYADSVKGRFTISRDNAKNTVYLQMNSLKPEDTAVYYCAAKQWWGGRPKVDYWGQGTQVTVSS	high polyreactivity
QVQLVESGGGLVQAGGSLRLSCAASGSTFSSYAMGWYRQAPGKERELVAAINWSRTRTYYADSVKGRFTISRDNAKNTVYFQMNSVIPEDTAVYYCAAPGFGETADYDYWGHGTQVTVSS	low polyreactivity
QVQLVESGGGLVQAGGSLRFSCAASGRIYYNAMGWYRQAPGKERELVAAISGSGTRTYYADSVKGRFTISRDNAKNTVFLQMNSLKPEDTAVYYCNAKFFLAATTRYYYWGQGTQVTVSS	high polyreactivity
QVQLVESGGGLVQAGGSLRLSCAASGSIFDWYVMGWYRQARGKERELVAAITSTGSTYYADSVKGRFTISRDNAKNTVYLQMNSLKPEDTAVYYCAAQRYSTFTYDYWGQGTQVTVSS	low polyreactivity
QVQLEESGGGLVQAGGSLRLSCAASGRIFQYYDMGWYRPATGKERELVAGIRTNGSSTYYADSVKGRFTISRDNAKNTVYLQMNSLKPEDSAVYYCAARHYRYLRQYDYWGQGTQVTVSS	low polyreactivity
QVQLVESGGGLVQAGGSLRLSCAASGRTFGRNAMGWYRQAPGKEMELVAAISWTGGNTYYADSVKGRFTISRDNAKNTVYLQMNSLKPEDTAVYYCAARGRYVTPQPSYDYWGQGTQVTVSS	high polyreactivity
QVQLVESGGGLVQAGGSLRLSCAATGRIFYPYAMGWYRQAPGKERELVATIRWRGGSTRYADSVKGRFTISRDNAKNTVFLQMNSLKPEDTAVYYCAAGFKVEPTDLYYWGQGTQVTVSS	high polyreactivity
QVQLVESGGGLVQAGGSLRLSCAASGRIFSYNAMGWYRQAPGKERELVAGITSGGRTYYADSVKGRFTISRDNAKNTVYLQMNSLKPEDTAVHYCAASYVPARTRYYYWGQGTQVTVSS	high polyreactivity
QVQLVESGGGLFQAGGSLRVSCAASGRTFVNYAMGWYRQAAGKERELVAAISTSGGSTYYADSVKGRFTISRDNAKNTDYYQRNSLKPEDTAVYYCKKVRYLAVNLGQFTFDYWGQGTQGTVSS	low polyreactivity
HVQLVESGGGLVQAGGSLRLSCAASGYTFWDYAMGWYRQAPGKEREFVAGISFSDGGTYYADSVKGRFTISRDNAKNTVYLQMNSLKPEDTAVYYCAATYPYSWVYSGYYYWGQGTQVTVSS	low polyreactivity
QVQLLESWGGLVQAGGSLRLSCAASGLIFYRNAMGWYRQAHGKERELVAAISVSGGSTYYADSVKGRFTISRDNAKNTVYLQMNRLKPEDTAVYYCAAKTWRSRGKEMDYWGQGTQVNVSS	high polyreactivity
QVQLVESGGGLVQAGGSLRLSCAASGRTSYTNAMGWYRQAPGKERELVAAINYSGGSTYYADSVKGRFTISRDNAKNTVYLQMNSLKPEDTAVYYCAADWDWWYQEFDYWGQGTQVTVSS	high polyreactivity
QDQLVESGGGLVQAGGSLRLSCAASGLIFPYNAMGWYRQAPGKERELVAAIDTRGSSTYYADSVKGRFTISRDNAKNTVYLQMNSLKPEDTAVYYCIPRSGRSPTGFRYWGQGTEVTVSS	high polyreactivity
QVQLVETGGGLVQAGVSLRLSCAASGRTWGYDMGWYRQAPGKERELVAAIRNGASTYYADSVKGRFTISRDNAKNTVYLQMNSLKPEDTAVYYCAADYTVRVVATYDYWGQGTQVTVSS	low polyreactivity
QVHLVESGGGLVQAGASLRLSCAASGRIFYKYAMGWYRQAPGKERELVAAISYRGGSTYYADSVKGRFTISRDNAKNSVYLQMKSLKPEDNAVYYCAADRWYYSVSTKSDSWGQGTQVTVSS	high polyreactivity
QVQLVESGGGLVQAGGSLRLSCAASGSTFAAKAMGWYRHAPGKERELVAAITSSGGSTYYADSVKGRFTISRDNAKNTVYLQMNSLKPEDTAVYYCNKDNERYVRIYDSWGQGTQVTVAS	low polyreactivity

Sequence	polyreactivity (PSR sort gate)
QVQIVESGGGLVQAGGSLRLSCADSGSTRIYAMGWYRQAPGKERELVAAISWSGGRTYYADSVKGRFTISRDNAKNTVYLQMNSLKPEDTAVYYCAAKGSGRDYWGQGTQVTVSS	high polyreactivity
QVQLVESGGGLVHAGGSLRLSCAASGSTFPGYAMGWYRQAPGKERELVAAISKRGGSTRYADSVKGRFTISRDNANNTVYLQMNSLKPEDTAVYYCAASYSYSGSGGGYWGQGTQVTVSS	high polyreactivity
QVQLEESGGGLVQAGVSLRLSCAASGIIFHFNDMVWYRQAPGKERELLAAIDSTGSTNYADSVKGRFTISRDNAKNTVYLQMNSLKPEDTAVYYCAVLNHRVDSVLTRYYYWGQGTQVTVSS	low polyreactivity
QVQLVESGGGLVQAGGSLRLSCAASGSTFKTYSMGWYRQAPGKERELVAAISGNGGSTYYADSVKGRFTISRDNAKNTVYLQMNILIPEDTAVYYCAAKRRRHFSRGYEYWGQGSQVTVSS	high polyreactivity
QVQLVESGGGLVQAGGSLRLSCAASGNIFPWYAMGWYRQAPGKERELVASITVSGGRTYYADSVKGRFTISRDNAKNTVYLQMNSLKPEDTAVYYCNKYLVWYVPGAYNSWGQGTQVTVSS	high polyreactivity
QVQLVESGGGLVQAGGSLRLSCAASGFTFYGYAMGWYRPAPGKERELVAAISWSGGSTFYADSVKGRFTISRDNAKNTVYLQMNSQKAEDTAVDYCNAKVYPWGYYTSWRTVSPYDYWGQGTQVSVSS	high polyreactivity
QVQLVESGGGLVQAGGSLRLSCAASGSIITVNAMGWYRQAPGKEREFVAGITSIGGRTYYADSVKGRFTISRDNAKNTDYLQMNSLKPEDTAVYDCNKRTYRARYDYWGQGTQVTVSS	high polyreactivity
QVQLVESGGGLVQAGGSLRLSCAASGRIFNQYAMGWYIQAPGKERELVAAISRRGGSTYYADSVKGRFTISRDNAKNTVYLQMNSLKPEDTAVYYCAAVGGYASYFHLYYYWGQGTQVTVSS	high polyreactivity
QVQLVESGGGLVQAGGSLRLSCAASGRIFVYYAMGWYRQAPGKERELVAAITYSVDSTYYADSVKGRFTISRDNAKNTVYLQMNSLKPEDTAVYYCATDVDWAYGYQYEYWGQGTQVTVSS	low polyreactivity
QVQLVESGGGLVQAGGSLRLSCAASGSTFNRYAMGWYRQAPGKERELVAAITRSGTSTYYADSVKGRFTISRDNAKNTVYLQMNSLKPEDTAVYYCAAVRYAVHFSYDYWGQGTQVTVSS	high polyreactivity
QVQLVESGGGLVQAGGSLRLSCAASGGIIRTYARGWYRQAPGNETELVAAITTNAGSTYYADSVKGRFTISRDNAKNTVYLQMNSLKPEDTAVYYCAARWYYPYRTRYSASYGYWVQGTQVTVSS	high polyreactivity
QVQLVESGGGLVQAGGSLLLSCAASGRIFQFYAMGWYRQAPGKERELVAGITTSGGSTYYADSVKGRFTISRDTAKNTVYLQMNSLKPEDTAVYYCAKRYYSSQFSKFGYWGQGSQVTVSS	high polyreactivity
QVQLVESGGGLVQAGGSLRLSCAASGSIFDRYAMGWYRQAPGKERELVASISNRGGRTFYADSVKGRFTISRDNAKNTVYLQMNSLKPEDTAVYYCARKTYYTGDFLGREYGYWGQGTQVTVSS	low polyreactivity
QVQLVESGGCLVQAGGSLRLICAASGNTFYVYAMGWYRQAPGKERELVAAITWSGGSTNYADSVKGRYTISRDNAKNTVYLQMNSLKPEDSAVYYCKADYWTFSPYDYWGQGTQVTVSS	low polyreactivity
QVQLVESGGGLVQAVGSLRLSCAASGSTFYPYAMGWYRQSPGKERELVAAISISGGITYYADSVKVRFTISRDNAKNTVYLQMNSLKPEDTAVYYCAAEYLAVSGYWYDYWGQGTQVTVSS	high polyreactivity
QVQLVESGGGLVQAGGSLRLSCAASGRIIGLYTMGWYRQAPGKERELVAAINIRGTRTYYADSVKGRFTISRDNAKNTVYLQMNSLKPEDTAVYYCAAASYRSGRYTFDYWGQGTQVTVSS	high polyreactivity
QVQLVESGGGLVQAGGSLRLSCAASGFIFEGNAMGWYRQAPGKERELVAAISSSSGRTRYADSVKGRFTISRDNAKNTVYLQMNSLKPEDTAVYYCAARRQSTRPGFYYWGQGTQVTVSS	high polyreactivity
QVQLVESGGGLVQAGGSLRLSCAASGRTFGLNAMGWYIQAPGKERELVAAISGSGGRTYYADSVKGRFTISRDNAKNTVYLQMNSLKPEDTAVYYCARVPSGQLEYDYWGQGTQVTVSS	high polyreactivity
QVQLVESGGGLVQAGGSLRLSCAASGFIFWVYALGWYRQAPGKERELVAAITSGGGSTYYADSVKGRFTISRDNAKNSVYLQMNSLKPEDTAVYYCNSVSWEGYDFDYWGQGTQVTVSS	high polyreactivity
QVQLVESGGGLVQAGGSLRLSCAASVSIFKVNAMGWYRQAPGKERELVAAISTSGSRTYYADSVKGRFTISRDNAKNTVYLQMNSLKPEDTAVYYCADDSYAGIVRYGYWGKGTQVTVSS	high polyreactivity
QVQLVESGGGLVQAGGSLRLSCAASGRTFYGYAMGWYRQAPGKERELVAAITQRSGSTYYADSVKGRFTISRDNAKNTVYLQMNSLKPEDTAVYYYNADKSQRVRRGDYWGQGTQVTVSS	high polyreactivity
